Here are results for one sequence from US20230383273.

This data set concerns T1, OMNI-68 (Gemmiger sp. An50).
T1 sequence: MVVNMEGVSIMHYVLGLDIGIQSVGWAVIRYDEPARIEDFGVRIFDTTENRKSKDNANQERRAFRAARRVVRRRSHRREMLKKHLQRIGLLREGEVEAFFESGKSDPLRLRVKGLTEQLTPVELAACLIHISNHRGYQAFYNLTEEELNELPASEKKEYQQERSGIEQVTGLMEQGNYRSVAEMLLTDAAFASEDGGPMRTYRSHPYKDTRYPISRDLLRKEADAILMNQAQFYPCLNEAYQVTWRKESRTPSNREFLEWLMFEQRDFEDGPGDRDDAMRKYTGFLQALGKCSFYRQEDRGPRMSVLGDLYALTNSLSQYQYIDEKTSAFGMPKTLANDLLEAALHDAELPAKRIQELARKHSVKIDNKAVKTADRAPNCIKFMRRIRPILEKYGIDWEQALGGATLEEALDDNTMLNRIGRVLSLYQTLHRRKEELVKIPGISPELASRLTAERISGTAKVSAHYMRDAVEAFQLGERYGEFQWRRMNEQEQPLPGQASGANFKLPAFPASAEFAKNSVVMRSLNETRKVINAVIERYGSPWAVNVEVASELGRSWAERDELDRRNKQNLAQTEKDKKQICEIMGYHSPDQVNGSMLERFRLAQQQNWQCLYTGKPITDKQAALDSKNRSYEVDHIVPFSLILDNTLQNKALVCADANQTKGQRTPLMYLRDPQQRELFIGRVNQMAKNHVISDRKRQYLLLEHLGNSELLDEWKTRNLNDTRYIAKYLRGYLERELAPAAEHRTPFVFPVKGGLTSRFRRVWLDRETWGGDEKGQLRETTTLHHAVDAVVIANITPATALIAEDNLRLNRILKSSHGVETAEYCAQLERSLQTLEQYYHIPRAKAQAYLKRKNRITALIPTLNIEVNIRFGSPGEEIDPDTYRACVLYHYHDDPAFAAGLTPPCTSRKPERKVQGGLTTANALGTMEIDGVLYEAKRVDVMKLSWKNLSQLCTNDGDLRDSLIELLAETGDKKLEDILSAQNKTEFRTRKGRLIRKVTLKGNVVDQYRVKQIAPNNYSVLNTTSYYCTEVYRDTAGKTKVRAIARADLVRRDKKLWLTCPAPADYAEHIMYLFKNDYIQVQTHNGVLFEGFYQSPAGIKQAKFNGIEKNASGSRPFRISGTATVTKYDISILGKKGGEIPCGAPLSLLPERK
As to the kind of experiment: cleavage_in_vitro. The following applies: PAM NNNVTA; TXTL.

In the case of “GGAAGAGCAGAGCCUUGGUCUCGUUUUGGUUCUCUGAUGGGAAACAUCAGAAGUUCUAAGAUAAGGCUUUACGCCGCAGGGUAUGGUGGUAUCCCGAACAAUCCACCGUUUCAGGAAUAGCGCAGCACUGGUUUCCAGUGCUGUUUUU / GGAAGAGCAGAGCCTTGGTCTCNNNNNNNN / NNNNNNNNGAGACCAAGGCTCTGCTCTTCC”, the activity (1-depletion score) was determined as 0.88.
